# Assay results reported in US20080248034A1 (MORPHOTEK, published 2008).
# B1: Fc-TEM1 (soluble recombinant endosialin: full-length TEM1 extracellular domain fused to monomeric murine IgG2b Fc) (Fc fusion, human)
# chain: QDPWAAEPRAACGPSSCYALFPRRRTFLEAWRACRELGGDLATPRTPEEAQRVDSLVGAGPASRLLWIGLQRQARQCQLQRPLRGFTWTTGDQDTAFTNWAQPASGGPCPAQRCVALEASGEHRWLEGSCTLAVDGYLCQFGFEGACPALQDEAGQAGPAVYTTPFHLVSTEFEWLPFGSVAAVQCQAGRGASLLCVKQPEGGVGWSRAGPLCLGTGCSPDNGGCEHECVEEVDGHVSCRCTEGFRLAADGRSCEDPCAQAPCEQQCEPGGPQGYSCHCRLGFRPAEDDPHRCVDTDECQIAGVCQQMCVNYVGGFECYCSEGHELEADGISCSPAGAMGAQASQDLGDELLDDGEDEEDEDEAWKAFNGGWTEMPGILWMEPTQPPDFALAYRPSFPEDREPQIPYPEPTWPPPLSAPRVPYHSSVLSVTRPVVVSATHPTLPSAHQPPVIPATHPALSRDHQIPVIAANYPDLPSAYQPGILSVSHSAQPPAHQPPMISTKYPELFPAHQSPMFPDTRVAGTQTTTHLPGIPPNHAPLVTTLGAQLPPQAPDALVLRTQATQLPIIPTAQPSLTTTSRSPVSPAHQISVPAATQPAALPTLLPSQSPTNQTSPISPTHPHSKAPQIPREDGPSPKLALWLPSPAPTAAPTALGEAGLAEHSQRDDRWLDDDD
# notes: extracellular domain; Monomeric secreted fusion protein made in CHO cells; also called TEM1-Fcγ; not shown: murine IgG2b Fcγ domain (hinge through CH3), modified: the four cysteine residues responsible for inter-heavy chain disu
# Biological target: tetanus toxoid (TT) (UniProt P04958 2-1315)
# Sequence (P04958 2-457 limits assumed, chain 1 of 2): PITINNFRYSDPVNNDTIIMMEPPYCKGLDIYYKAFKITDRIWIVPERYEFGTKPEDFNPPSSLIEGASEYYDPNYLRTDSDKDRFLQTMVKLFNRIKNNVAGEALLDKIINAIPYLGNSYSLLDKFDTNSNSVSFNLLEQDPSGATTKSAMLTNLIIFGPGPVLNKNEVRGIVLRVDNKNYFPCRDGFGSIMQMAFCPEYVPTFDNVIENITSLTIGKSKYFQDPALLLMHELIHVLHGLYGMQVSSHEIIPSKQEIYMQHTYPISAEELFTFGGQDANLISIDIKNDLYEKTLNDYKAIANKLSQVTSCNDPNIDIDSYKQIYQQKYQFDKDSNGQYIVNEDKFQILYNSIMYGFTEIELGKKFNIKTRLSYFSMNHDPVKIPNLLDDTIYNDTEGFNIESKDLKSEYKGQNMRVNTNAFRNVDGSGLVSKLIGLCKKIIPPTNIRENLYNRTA
# Sequence (P04958 458-1315 limits assumed, chain 2 of 2): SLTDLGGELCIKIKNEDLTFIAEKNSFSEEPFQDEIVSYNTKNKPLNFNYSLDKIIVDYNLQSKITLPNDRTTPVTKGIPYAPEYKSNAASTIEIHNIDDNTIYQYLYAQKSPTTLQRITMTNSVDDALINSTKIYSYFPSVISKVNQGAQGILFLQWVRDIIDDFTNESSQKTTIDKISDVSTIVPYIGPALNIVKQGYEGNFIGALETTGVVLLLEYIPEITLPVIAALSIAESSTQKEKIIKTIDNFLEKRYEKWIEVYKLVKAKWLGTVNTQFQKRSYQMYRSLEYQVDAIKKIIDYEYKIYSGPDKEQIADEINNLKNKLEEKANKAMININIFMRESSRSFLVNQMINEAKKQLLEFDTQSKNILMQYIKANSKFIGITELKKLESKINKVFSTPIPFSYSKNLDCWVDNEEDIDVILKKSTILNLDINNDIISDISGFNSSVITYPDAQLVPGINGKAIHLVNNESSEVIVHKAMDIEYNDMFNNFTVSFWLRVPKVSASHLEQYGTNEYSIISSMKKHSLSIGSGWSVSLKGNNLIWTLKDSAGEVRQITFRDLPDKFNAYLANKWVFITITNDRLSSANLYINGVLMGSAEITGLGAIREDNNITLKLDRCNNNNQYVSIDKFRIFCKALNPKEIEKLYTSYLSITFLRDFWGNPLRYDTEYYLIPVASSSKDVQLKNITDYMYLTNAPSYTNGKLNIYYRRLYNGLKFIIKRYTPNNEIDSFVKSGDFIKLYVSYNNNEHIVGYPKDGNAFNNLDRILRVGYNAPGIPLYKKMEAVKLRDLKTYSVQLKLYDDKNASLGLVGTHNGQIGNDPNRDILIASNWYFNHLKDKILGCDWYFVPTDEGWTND
# Test: antigen-specific ELISA, coated at 1:500 dilution (FIG. 4B)
binder,measurement,value
B1,binding result,"no binding (tested: 5, 10, 50 ug/ml)"
